# Laboratory results published in US20090035307A1 (AbbVie / Abbott, published 2009).
# T1: Aβ(20-42) globulomer (human)
# T1 peptide: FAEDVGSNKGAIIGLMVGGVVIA
# T2: Aβ(12-42) globulomer (human)
# T2 peptide: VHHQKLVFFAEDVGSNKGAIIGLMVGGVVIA
# Columns and labels:
# Aβ(1-40) monomer = biological target: T3, Aβ(1-40) monomer (human); experiment: dot blot, antibody 0.2 µg/mL
# T3 construct: Synthetic peptide (Bachem) freshly dissolved in 0.1% NH4OH or 0.1% NaOH; both preparations were dotted; also called Aβ(1-40) monomer, 0.1% NH4OH; Aβ(1-40) monomer, 0.1% NaOH
# Procedure: (§1) For detection, the corresponding antibody was used (0.2 μg/mL). Immunostaining was done using peroxidase conjugated anti-mouse-IgG and the staining reagent BM Blue POD Substrate (Roche).
# (§2) 1) 1 μL each of the different Aβ-standards (in their 5 serial dilutions) were dotted onto the nitrocellulose membrane in a distance of approximately 1 cm from each other. [0267] 2) The Aβ-standards dots were allowed to dry on the nitrocellulose membrane on air for at least 10 min at room temperature (RT) (=dot blot). [0268] 3) Blocking: [0269] The dot blot was incubated with 30 mL 5% low fat milk in TBS for 1.5 h at RT. [0270] 4) Washing: [0271] The blocking solution was discarded and the dot blot incubated under shaking with 20 mL TTBS for 10 min at RT. [0272] 5) Antibody solution I: [0273] The washing buffer was discarded and the dot blot incubated with antibody solution I for 2 h at RT. [0274] 6) Washing: [0275] The antibody solution I was discarded and the dot blot incubated under shaking with 20 mL TTBS for 10 min at RT. The washing solution was discarded and the dot blot incubated under shaking with 20 mL TTBS for 10 min at RT. The washing solution was discarded and the dot blot incubated under shaking with 20 mL TBS for 10 min at RT. [0276] 7) Antibody solution II: [0277] The washing buffer was discarded and the dot blot incubated with antibody solution II overnight at RT. [0278] 8) Washing: [0279] The antibody solution II was discarded and the dot blot incubated under shaking with 20 mL TTBS for 10 min at RT. The washing solution was discarded and the dot blot incubated under shaking with 20 mL TTBS for 10 min at RT. The washing solution was discarded and the dot blot incubated under shaking with 20 mL TBS for 10 min at RT. [0280] 9) Development: [0281] The washing solution was discarded. The dot blot was developed with 10 mL BM Blue POD Substrate for 10 min. The development was stopped by intense washing of the dot blot with H₂O. Quantitative evaluation was done using a densitometric analysis (GS800 densitometer (BioRad) and software package Quantity one, Version 4.5.0 (BioRad)) of the dot-intensity. […] This threshold value was determined for every dot-blot independently.
# Aβ(20-42) globulomer = biological target: T1, Aβ(20-42) globulomer; experiment: dot blot, antibody 0.2 µg/mL
# Procedure: as §1, §2
# Aβ(1-42) monomer = biological target: T4, Aβ(1-42) monomer (human); experiment: dot blot, antibody 0.2 µg/mL
# T4 construct: Synthetic peptide (Bachem H-1368) freshly dissolved in 0.1% NH4OH or 0.1% NaOH; both preparations were dotted; also called Aβ(1-42) monomer, 0.1% NH4OH; Aβ(1-42) monomer, 0.1% NaOH
# Procedure: as §1, §2
# Aβ(1-42) globulomer = biological target: T5, Aβ(1-42) globulomer (human); experiment: dot blot, antibody 0.2 µg/mL
# T5 construct: also called 38/48-kDa Aβ(1-42) globulomer; Aβ(1-42) globular oligomer
# Procedure: as §1, §2
# Aβ(12-42) globulomer = biological target: T2, Aβ(12-42) globulomer; experiment: dot blot, antibody 0.2 µg/mL
# Procedure: as §1, §2
# [1] = biological target: T6, soluble amyloid precursor protein-alpha (sAPPα) (UniProt P05067-4 18-612, limits assumed); experiment: dot blot on nitrocellulose, densitometry
# T6 construct: Bought protein; also called sAPPα (Sigma)
# Procedure: as §1
# 1) 1 μL each of the different Aβ-standards (in their 5 serial dilutions) were dotted onto the nitrocellulose membrane in a distance of approximately 1 cm from each other. [0267] 2) The Aβ-standards dots were allowed to dry on the nitrocellulose membrane on air for at least 10 min at room temperature (RT) (=dot blot). [0268] 3) Blocking: [0269] The dot blot was incubated with 30 mL 5% low fat milk in TBS for 1.5 h at RT. [0270] 4) Washing: [0271] The blocking solution was discarded and the dot blot incubated under shaking with 20 mL TTBS for 10 min at RT. [0272] 5) Antibody solution I: [0273] The washing buffer was discarded and the dot blot incubated with antibody solution I for 2 h at RT. [0274] 6) Washing: [0275] The antibody solution I was discarded and the dot blot incubated under shaking with 20 mL TTBS for 10 min at RT. The washing solution was discarded and the dot blot incubated under shaking with 20 mL TTBS for 10 min at RT. […] Quantitative evaluation was done using a densitometric analysis (GS800 densitometer (BioRad) and software package Quantity one, Version 4.5.0 (BioRad)) of the dot-intensity. […] This threshold value was determined for every dot-blot independently.
# [2] = biological target: T7, Aβ(1-42) peptide in the CSF of an Alzheimer's disease patient (human); experiment: immunoprecipitation from CSF with antibody-coated Dynabeads, urea-PAGE and Western blot
# T7 construct: Endogenous peptide immunoprecipitated from patient CSF; also called Aβ(1-42) peptide present in cerebrospinal fluid (CSF)
# Procedure: Activation of Dynabeads with monoclonal mouse antibodies [0497] the stock-suspension of dynabeads (Dynabeads M-280 Sheep anti-Mouse IgG, Invitrogen; Prod. No. 112.02) was shaken carefully to prevent foaming [0498] 1 mL was aseptically removed and transferred to a 1.5 mL reaction vial [0499] the dynabeads were washed 3 times 5 min with 1 mL immunoprecipitation (IP)-wash buffer (IP-wash-buffer: PBS (20 mM NaH₂PO₄, 140 mM NaCl, pH 7.4), 0.1% (w/v) BSA) During the washing procedure the supernatant was carefully removed while the dynabeads were immobilized at the side of the reaction vial with a magnetic separator stand (MSS) [0500] the washed dynabeads were incubated with 40 μg Aβ-antibody in 1 mL PBS, 0.1% (w/v) BSA [0501] the activation was carried out by overnight incubation under shaking at 4° C. [0502] the activated dynabeads were washed 4 times 30 min (again using the MSS) with 1 mL IP-wash buffer (PBS (20 mM NaH₂PO₄, 140 mM NaCl, pH 7.4), 0.1% (w/v) BSA) [0503] the activated dynabeads were resuspended with 1 mL PBS, 0.1% (w/v) BSA, 0.02% (w/v) Na-Azide; vortexed and centrifuged briefly [0504] the antibody activated dynabeads were stored at 4° C. until further use
# 250 μL aliquot of the prepared CSF sample were added to 25 μL anti-Aβ-Dynabeads suspension [0507] Immunoprecipitation occurred under stirring at 6° C. for 16 hours. […]
# T3 sequence (peptide, as listed by the source): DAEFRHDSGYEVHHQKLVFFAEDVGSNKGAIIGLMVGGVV
# T6 sequence (P05067 other isoform, or with tags, fused parts or gaps limits assumed): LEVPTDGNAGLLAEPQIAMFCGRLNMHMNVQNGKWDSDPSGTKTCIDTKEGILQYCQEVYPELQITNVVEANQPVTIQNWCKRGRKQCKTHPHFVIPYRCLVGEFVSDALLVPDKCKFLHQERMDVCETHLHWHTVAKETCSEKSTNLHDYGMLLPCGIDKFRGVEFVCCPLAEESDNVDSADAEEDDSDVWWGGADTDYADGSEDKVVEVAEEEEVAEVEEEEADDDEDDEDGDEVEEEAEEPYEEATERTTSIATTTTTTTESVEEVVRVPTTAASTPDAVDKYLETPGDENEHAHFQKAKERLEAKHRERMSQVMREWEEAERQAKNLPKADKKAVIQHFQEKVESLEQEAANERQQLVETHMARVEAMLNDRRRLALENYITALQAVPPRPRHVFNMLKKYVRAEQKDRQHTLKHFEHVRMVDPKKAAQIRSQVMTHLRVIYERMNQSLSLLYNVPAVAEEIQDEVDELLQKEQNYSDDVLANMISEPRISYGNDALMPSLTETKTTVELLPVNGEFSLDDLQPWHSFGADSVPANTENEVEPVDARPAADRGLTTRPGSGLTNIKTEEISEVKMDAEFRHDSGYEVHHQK
Binder,binding result (Aβ(1-40) monomer),binding result (Aβ(20-42) globulomer),binding result (Aβ(1-42) monomer),binding result (Aβ(1-42) globulomer),binding result (Aβ(12-42) globulomer),binding result [1],binding result [2]
"monoclonal antibody 10F4 (antibody, V domains shown, Murine monoclonal antibody from a hybridoma (Balb/c mice immunized with Aβ(12-42) globulomer); also called mAb 10F4; ML43-10F4.3H8) VH: QVQLQQSGAELVRPGTSVRVSCKASGYAFTNYLIEWVKQRPGQGLEWIGVINPGSGDTNYNENFKGKATLTADKSSSTAYMHLSSLTSDDSAVYFCTRGVITTGFDYWGQGTTLTISS VL: DIQMTQSPASLSASVGETVTITCRASGNIHNYLAWYQQKQGKSPQLLVYNAKTLADGVPSRFSGSGSGTQYSLKINSLQPEDFGSYYCQHFWSSPRTFGGGTKLEIKR",binds,binds,binds,binds,binds,no binding (tested: antibody 0.2 µg/mL; first dot: 1 pmol),binds
"monoclonal antibody 3C5 (antibody, V domains shown, Murine monoclonal antibody from a hybridoma (Balb/c mice immunized with Aβ(12-42) globulomer); also called mAb 3C5; ML45-3C5.5) VH: DVQLQESGPGLVKPSQSLSLTCTVAGSSITSHYAWNWIRQFPGNKLEWMGYIDYSGSTRYLPSLKSRISITRDTSKNQFFLQLNSVTTEDTATYYCARGSGYFYGMDYWGQGTSVTVSS VL: DIQMNQSPSSLSPSLGDTITITCHASQNINVWLSWYQQKPGNIPKLLIYKASNLHTGVPSRFSGSGSGIGFTLTIRSLQPEDIATYFCQQGQSYPYTFGGGTKLEIKR",binds,binds,binds,binds,binds,no binding (tested: antibody 0.2 µg/mL; first dot: 1 pmol),binds
